Test system: MS2 coat protein
Assay: apparent KD of MS2 coat protein; designed switch direction (-1 OFF switch, 1 ON switch): 1; higher = weaker reporter binding
Method in brief: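 Each step of the titration lasted 0.8–1.5 h at the lowest concentration and 10–20 min at the highest. The protein, SNAP-549-labelled MS2 coat protein, went from 0.7 or 1.5 nM doubling to 3 µM over RNA switches transcribed on Illumina chips by stalled E. coli RNA polymerase. Normalised cluster fluorescence was curve-fitted, and the per-design median over clusters is given as apparent KD.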

[1] = Eterna round: R95, input ligand: FMN 200 uM
[2] = Eterna round: R95, input ligand: microRNA oligo, concentration not stated
[3] = Eterna round: R95, input ligand: none
[4] = input ligand: microRNA oligo, concentration not stated

Sequence | apparent KD of MS2 coat protein [1] [nM] | apparent KD of MS2 coat protein [2] [nM] | apparent KD of MS2 coat protein [3] [nM] | apparent KD of MS2 coat protein (input ligand: FMN 200 uM) [nM] | apparent KD of MS2 coat protein [4] [nM] | apparent KD of MS2 coat protein (input ligand: none) [nM]
GCCGCACAUGAGGAUCACCCAUGUAAUUACAUGGGAGGAUAUCAGUGCUCGAAAGAGCACUGAGAAGGCCUAAGGC [SS1 - Omei A] (puzzle: Same State 1) | 419 | 32.4 | 20.8 | – | – | –
AGUCCAGCCUGAGCUGGACAAAAGCAUGUACAUGAGGAUCACCCAUGUCAUGUACAAGCUUUUUGCUCGUCUUAAUA [Mat - hsa-mir-208a - Mod of JL - D44] (puzzle: Sensor for hsa-mir-208a) | 544 | 15.3 | 634 | – | – | –
GCGUUUAACGUAGGAUAUCGAGCUACAUGAGGAUCACCCAUGUCUUUGUAAAGUUUUUUUAAUUACGAGAAGGACGUUUUGCAU [JR_SSNG2_Sub072] (Eterna round: R96, puzzle: Same State NG 2) | – | – | – | 18.7 | 26.7 | 35.8
GGUCCAGCCUGAGCUGGACAAAAGCAUGUACAUGAGGAUCACCCAUGUUCAUGUACAAGCUUUUUGCUCGUCUUAGG [salish99_208a_r3_070] (puzzle: Sensor for hsa-mir-208a) | 602 | 19.8 | 401 | – | – | –
ACUCUCACAGUAGGAUAUGUAGGAUAUGCCUACAUGAGGAUCACCCAUGUAAACAUGGCAGAAGGAUAGAAGGACUUACAUGGG [pwkr ssNG2 2FMN + 1F5.4] (Eterna round: R96, puzzle: Same State NG 2) | – | – | – | 108 | 44.1 | 196
AGGAAGGAGACUGAGGAUAUCGUUGAAAAGACAUGAGGAUCACCCAUGUGUAUAGGAUUGGAGAACGAGAAGGCAGAGGAGUGGA [JR_SS2_Sub044] (puzzle: Same State 2) | 29.2 | 33.3 | 37.5 | – | – | –
UGUUGUUAAUUAGGAUAUGGUCACAUGAGGAUCACCCAUGUAAUGUCGAUGCUAUGUGGAUUUGAUCAGAAGGAAUGGCUAACA [SameState NG2 #97] (Eterna round: R96, puzzle: Same State NG 2) | – | – | – | 105 | 242 | 341
UCUUGGUUUUUGCUCGUUUUUUGUGUUGAACAUGAGGAUCACCCAUGUAUUGUACGGUCCGAUUUAGUGGUAGUCCG [JMF 72] (puzzle: Sensor for hsa-mir-208a) | 34.7 | 23.5 | 36 | – | – | –
CGGCGCUGUCGAGAGGAUAUGCGGUGACGGACAUGAGGAUCACCCAUGUUAGCGAUAGCGUUACGGUAGAAGGCUCUACAGUCGC [Soteed Omei mod 10] (puzzle: Same State 2) | – | 49.2 | – | – | – | –
GUACUACAUGAGGAUCACCCAUGUACAAAGGUACGAGGAUAUGCAUGUACGAAAGUAUAUGCAGAAGGCGUAGUAC [Pin2Pin #2] (puzzle: Same State 1) | – | 23.3 | – | – | – | –
UCUUGGUUUUUGCUCGUUUUUUGUGUUGAACAUGAGGAUCACCCAUGUAUUGUACGGUCCGAUUUAGUGAUGGUCCA [JMF 40] (puzzle: Sensor for hsa-mir-208a) | 36.9 | 18.4 | 42.5 | – | – | –
GCCAACUCAUGAGGAUAUGGCACCUUAUUGGUGCCAGAAGGCAUGUCUAUUGACAUGAGGAUCACCCAUGUAUUAUAGUUGGCA [Fiskers NG1ss - 23] (Eterna round: R96, puzzle: Same State NG 1) | – | – | – | 83.9 | 192 | 859
CCGAAAGGAGUAGGAUAUGUAGGAUAUGCCUACAUGAGGAUCACCCAUGUUCGCAUGGCAGAAGGACAGAAGGACACGGAAACG [pwkr ssNG2 2FMN + 1F5.12] (Eterna round: R96, puzzle: Same State NG 2) | – | – | – | 101 | 113 | 293
UAGGUUGAGCAAGGAUAUCCAAGAUUGAUUCGUAUCGACAUGAGGAUCACCCAUGUCCCGAGAAGGGAGAAGGUGCGUCCAACC [Eternabot solution 30] (Eterna round: R96, puzzle: Same State NG 2) | – | – | – | 15.4 | 27.9 | 42.3
GGUCCAGCCUGAGCUGGACUACAGCAUGUACAUGAGGAUCACCCAUGUCAUGUACAAGAAUGUUGUUUGUCUUAAAA [Sensorship 8 - Jieux - Sensor for hsa-mir-208a] (puzzle: Sensor for hsa-mir-208a) | 88.1 | 64.3 | 118 | – | – | –
GGAAAGAGGUUAGGAUAUGCAUGGCUGGGACAUGAGGAUCACCCAUGUAAUAGAAGAAAUCUACAGUAGAAGGGACAAGGAAGG [AK SSNG2-V2-8] (Eterna round: R96, puzzle: Same State NG 2) | – | – | – | 759 | 262 | 224

Sequence | apparent KD of MS2 coat protein [1] [nM] | apparent KD of MS2 coat protein [2] [nM] | apparent KD of MS2 coat protein [3] [nM] | apparent KD of MS2 coat protein (input ligand: FMN 200 uM) [nM] | apparent KD of MS2 coat protein [4] [nM] | apparent KD of MS2 coat protein (input ligand: none) [nM]
GGUAGGUUACUACCAAUCACAUGAGGAUCACCCAUGUUGUGGGAGGAUAUGGUACCUAUUUGGUACCAGAAGGCCUUAUUAAUU [Fiskers NG3ss - 11] (Eterna round: R96, puzzle: Same State NG 3) | – | – | – | 74.8 | 55.6 | 85.2
AUAAAACAUGAGGAUCACCCAUGUCAACAAAGUCGAGGAUAUGGGCAAAGAAAAUAAGAACCAGAAGGCGAAUAAU [salish99_ss1_r3_056] (puzzle: Same State 1) | 36.2 | 319 | 489 | – | – | –
GUAGCAUACCGAGGAUAUUCAUAUUAUACAUGAGGAUCACCCAUGUGGCCACAUUAGUGGCCUUGGGAGAAGGCGGAAUGCUAC [Xeonanis - 20 Mod37] (Eterna round: R96, puzzle: Same State NG 2) | – | – | – | 99.2 | 290 | 669
GUAAAACAUGAGGAUCACCCAUGUAAUAUAAUGGGAGGAUAUCUGAUUUAAUUUAAUUUAAGAGAAGGCCUAAAUG [Mat - Same State 1 - Mod of Eli - D57] (puzzle: Same State 1) | 39.6 | 268 | 372 | – | – | –
UUACUCAUGUAAGGAUAUGCAGCCGUUUCGGCUGCAGAAGGUACUAUAAUACAUGAGGAUCACCCAUGUCUCUAUUAUUUAGUG [salish99_SSNG1_r04_922] (Eterna round: R96, puzzle: Same State NG 1) | – | – | – | – | 39.9 | –
UGGUAACAUGAGGAUCACCCAUGUCAAAUGAAUCGAGGAUAUGGGAAAGGAGAAGAGAAACCAGAAGGCGAAGUUG [Altered State 1-13 - Jieux - Same State 1] (puzzle: Same State 1) | 50.7 | 54.1 | 51.9 | – | – | –
UUACUCAUGUAAGGAUAUGCAGCCGUUUCGGCUGCAGAAGGUACUAUAAUACAUGAGGAUCACCCAUGUCUUUUUAAUUUAGAC [JL SSNG1 1.29] (Eterna round: R96, puzzle: Same State NG 1) | – | – | – | 56.2 | 30.7 | 47.8
UAUGAAUUACAAGGAUAUUAAUAACAUGAGGAUCACCCAUGUGGCUGUGAGAGUUAGAUAAGCUAUAAGAAGGUGUGUGUGUUU [JR_SSNG2_Sub093] (Eterna round: R96, puzzle: Same State NG 2) | – | – | – | 93.1 | 196 | 267
AUACAUGAGGAUCACCCAUGUAAUUAAUUAAUUAAUAAGAUCAAGGAUAUCAGCUCGAAUAGAGCUGAGAAGGUGAUCACAUGU [SSNG3/21-D1] (Eterna round: R96, puzzle: Same State NG 3) | – | – | – | – | 177 | –
GCUAGGAAAGAAGCCAACAUGAGGAUCACCCAUGUAUGUUGGUAGGAUAUCGUAUGCAAAGCAUACGAGAAGGGCUAACCUAGC [Mat - Same State NG 3 - JL Mod - D74] (Eterna round: R96, puzzle: Same State NG 3) | – | – | – | 127 | 127 | 153
AGCUAUUACGAAGGAUAUUGUGACAUGAGGAUCACCCAUGUUUACAUGAUUAAUUGUGAUCACGUCGAGAAGGUUGUACUAACA [SameState NG2 #32] (Eterna round: R96, puzzle: Same State NG 2) | – | – | – | 24.3 | 27.3 | 30.2
GUUACAUGAGGAUCACCCAUGUAUGUGUGGGAGUAAGUGUCUUAGGAUAUCUGUUAUUUAAGUUAAGAGAAGGAAGAUUGUUGU [JMF's solution 42] (Eterna round: R96, puzzle: Same State NG 3) | – | – | – | 92.8 | 45.6 | 82.4
AUGCCAAAUCGAGGAUAUGGAGCCUUAUUGGCUCCAGAAGGUGAGACAUGAGGAUCACCCAUGUGGCAGUGGUCUAAUGACCAC [Fiskers NG1ss - 32] (Eterna round: R96, puzzle: Same State NG 1) | – | – | – | 174 | 270 | 581
UAAAUAAAGUAAGGAUAUACAUGAGGAUCUCUCGUAGAAGGUACUAUACAUGAGGAUCACCCAUGUGCCGGUCCGUAGACUGGA [Mat - Same State NG 1 - JL mod - D8] (Eterna round: R96, puzzle: Same State NG 1) | – | – | – | 475 | 107 | 68.8
GCUACAUGAGGAUCACCCAUGUGUGCGUGGGAGUGAGUGGCUUAGGAUAUCUAUGACUUGAGUUGAGAGAAGGAGGGUUGCUGU [SS-NG3-LRO13] (Eterna round: R96, puzzle: Same State NG 3) | – | – | – | 70.9 | 53.6 | 79.3

— the supplement of paper PMC9170038
